Experimental data as given in PMC6957250 (Experimental and molecular pathology, 2016).
Like-named read-outs stand apart in the source and are kept apart here.

Assays:
Assay in all cases: ELISA
[1] = molecular target: recombinant CD64A ectodomain (Homo sapiens (assumed), UniProt P12314)
[2] = molecular target: recombinant CD32B ectodomain (Homo sapiens (assumed), UniProt P31994)
[3] = molecular target: recombinant CD32A ectodomain (Homo sapiens (assumed), UniProt P12318)
[4] = molecular target: recombinant CD16B ectodomain (Homo sapiens, UniProt O75015)
Chain of recombinant CD16B ectodomain (O75015 whole entry, looked up, the tested form may be a part): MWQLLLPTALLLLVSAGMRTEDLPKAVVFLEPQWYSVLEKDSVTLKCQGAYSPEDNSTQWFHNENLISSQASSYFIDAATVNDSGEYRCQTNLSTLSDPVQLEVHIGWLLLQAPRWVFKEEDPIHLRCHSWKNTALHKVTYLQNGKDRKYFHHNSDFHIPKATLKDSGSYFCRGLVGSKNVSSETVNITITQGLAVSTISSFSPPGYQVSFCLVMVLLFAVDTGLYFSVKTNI

[5] = molecular target: T1, recombinant CD16A-mFc (CD16A-158V extracellular domain fused to monomeric Fc) (Homo sapiens, allotype 158V, UniProt P08637, strain)
T1 sequence (P08637 17-208, change not shown): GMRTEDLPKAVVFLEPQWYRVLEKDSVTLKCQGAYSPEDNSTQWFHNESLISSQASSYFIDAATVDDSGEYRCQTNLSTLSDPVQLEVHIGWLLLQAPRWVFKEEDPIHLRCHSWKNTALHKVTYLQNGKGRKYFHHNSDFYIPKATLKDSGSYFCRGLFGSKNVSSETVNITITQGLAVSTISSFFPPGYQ

[6] = molecular target: CD16A-158F-mFc (CD16A carrying the 158F isoform, monomeric Fc fusion) (Homo sapiens, allotype 158F, UniProt P08637)
Chain of CD16A-158F-mFc (CD16A carrying the 158F isoform, monomeric Fc fusion) (P08637 17-208): as the sequence (P08637 17-208, change not shown) above

[7] = molecular target: T1, recombinant CD16A-mFc (CD16A-158V …); remark: listed apart in the source

Chain of recombinant CD32A ectodomain (P12318 34-217): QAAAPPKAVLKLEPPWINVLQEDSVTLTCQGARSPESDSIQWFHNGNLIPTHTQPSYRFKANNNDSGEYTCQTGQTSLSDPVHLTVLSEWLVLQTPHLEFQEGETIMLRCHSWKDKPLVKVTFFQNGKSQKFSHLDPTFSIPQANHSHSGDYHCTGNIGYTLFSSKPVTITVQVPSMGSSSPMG
Chain of recombinant CD64A ectodomain (P12314 16-292): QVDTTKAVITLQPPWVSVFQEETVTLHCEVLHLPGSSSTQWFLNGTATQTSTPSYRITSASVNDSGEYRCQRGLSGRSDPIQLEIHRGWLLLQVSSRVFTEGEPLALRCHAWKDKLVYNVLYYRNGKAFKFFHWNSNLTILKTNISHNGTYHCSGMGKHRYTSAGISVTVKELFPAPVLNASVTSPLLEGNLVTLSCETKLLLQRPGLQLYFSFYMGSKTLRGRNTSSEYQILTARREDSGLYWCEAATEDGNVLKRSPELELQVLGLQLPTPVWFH
Chain of recombinant CD32B ectodomain (P31994 43-217): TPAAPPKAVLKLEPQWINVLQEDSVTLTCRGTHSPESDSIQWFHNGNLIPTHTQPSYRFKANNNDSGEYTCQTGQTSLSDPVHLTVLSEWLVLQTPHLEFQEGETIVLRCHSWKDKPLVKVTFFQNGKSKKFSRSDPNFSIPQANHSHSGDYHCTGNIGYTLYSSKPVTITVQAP

Row | binding result [1] | binding result [2] | binding result [3] | binding result [4] | EC50 [5] | binding result [6] | EC50 [7] | Binder
1 | no binding | no binding | no binding | no binding | 8 nM | binds | – | antibody domain E11 (VHH) VH: EVQLVESGGGLVQPGGSLRLSCAASGFTFSSYGMSWVRQAPGKGLEWIGEVNHSGGSTNYNPSLKGSFVISRDNSKNTLYLQMNSLAEDTAVYYCARVGSFDFWGQGTLVTVSS
2 | no binding | no binding | no binding | no binding | 4 nM | binds | ~60 nM | antibody domain D6 (VHH) VH: EVQLVESGGGLVQPGGSLRLSCAASGFTFSNYGMSWVRQAPGKGLEWIGSIYYSGGSTNYNPSLKGSLVISRDNSKNTLYLQMNSLAEDTATYYCARESIDYWGQGTLVTVSS
